Assay results reported in publication PMC9792439 (Biochimica et biophysica acta. General subjects, 2022).

Target: GST-tagged wild type human UBQLN2 (human, UniProt Q9UHD9 1-624)
Assay: pull-down

Chain of GST-tagged wild type human UBQLN2 (Q9UHD9 whole entry): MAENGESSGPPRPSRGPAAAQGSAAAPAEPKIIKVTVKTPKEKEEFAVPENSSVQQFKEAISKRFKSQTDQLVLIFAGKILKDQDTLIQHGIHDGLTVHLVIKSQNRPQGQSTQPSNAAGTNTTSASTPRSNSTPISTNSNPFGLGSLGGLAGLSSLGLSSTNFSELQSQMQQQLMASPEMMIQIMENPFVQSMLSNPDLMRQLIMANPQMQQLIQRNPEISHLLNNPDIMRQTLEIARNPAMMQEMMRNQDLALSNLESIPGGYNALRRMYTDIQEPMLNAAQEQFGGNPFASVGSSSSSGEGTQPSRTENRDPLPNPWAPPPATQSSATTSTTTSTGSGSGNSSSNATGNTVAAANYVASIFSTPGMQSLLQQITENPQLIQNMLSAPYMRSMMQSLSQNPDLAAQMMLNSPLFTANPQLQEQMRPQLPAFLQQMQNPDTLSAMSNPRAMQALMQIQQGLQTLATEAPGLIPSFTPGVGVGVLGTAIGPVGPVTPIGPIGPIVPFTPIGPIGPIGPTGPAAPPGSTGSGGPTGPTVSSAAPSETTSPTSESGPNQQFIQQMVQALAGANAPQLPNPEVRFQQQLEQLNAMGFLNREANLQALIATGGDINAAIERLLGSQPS

B1: HSPA1B ATP-binding domain (1 to 385 aa) with 6 His tag (domain or fragment)
chain: not shown
binding result: binds
